Measurements published in patent US20040005687A1, “Kinase crystal structures” (priority 2001, published 2004).
Read-outs that look alike come from different tables or passages of the source. Square brackets hold non-standard residues; d marks the D form. Ends that are not written are not given here. Peptide text beside a SMILES is read from it. pS = N[C@@H](COP(=O)(O)O)C(=O)O

Tests used:
[1] = molecular target: T1, pΔPH-PKB-ΔC (PKBβ residues 146 to 460, phosphorylated in vitro on Thr-309) (Homo sapiens, UniProt P31751); assay: Protein kinase B assay, peptide stimulation of pΔPH-PKB-ΔC (Crosstide substrate); type: biochemical; conditions: for maximal fold induction at 600 µM: read-out: maximum activation (fold stimulation) of pΔPH-PKB-ΔC kinase activity; for fold lower affinity than PIFtide (from EC50 values): relative to PIFtide
T1 construct: pΔPH-PKB-ΔC (residues 146 to 460, phosphorylated in vitro on Thr-309); 6xHis (pFastBacHTa, TEV-cleavable) (N, cleaved yes); made in house; host or cells: Sf9 insect cells / baculovirus
T1 sequence (P31751 146-460, stated change not applied): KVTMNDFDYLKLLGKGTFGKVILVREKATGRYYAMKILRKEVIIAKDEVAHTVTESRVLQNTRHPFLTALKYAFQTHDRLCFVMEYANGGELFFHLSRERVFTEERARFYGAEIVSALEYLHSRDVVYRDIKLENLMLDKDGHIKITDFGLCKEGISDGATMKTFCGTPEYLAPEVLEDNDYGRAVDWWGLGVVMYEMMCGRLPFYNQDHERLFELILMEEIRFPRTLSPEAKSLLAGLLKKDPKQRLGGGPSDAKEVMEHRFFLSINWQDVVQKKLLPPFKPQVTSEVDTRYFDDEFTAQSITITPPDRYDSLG
Description: To test the model that Ser 474 phosphorylation promotes an interaction between the hydrophobic motif and the induced hydrophobic groove of the N-terminal lobe, thereby causing an allosteric activation of the kinase, the ability of peptides modelled on the hydrophobic motif of PKB to activate the enzyme via an intermolecular association with the N-terminal lobe was assessed.
(§1) PKB was assayed essentially as described by Andjelkovic et al. (1999) with 30 μM Crosstide (GRPRTSSAEG) as substrate except the protein kinase A inhibitor peptide was not added to the reactions. For peptide stimulation experiments the various peptides were dissolved in water and added to the kinase assay mix prior to adding the PKB protein. Peptides were synthesized by Franz Fischer at the FMI or purchased from Neosystem, Strasburg, France.
(§2) All experiments were performed in either duplicate or triplicate.

[2] = molecular target: T2, His tagged pΔPH-PKB-ΔC wild type (Homo sapiens, UniProt P31751); assay: PIFtide responsiveness of His tagged pΔPH-PKB-ΔC wild type expressed in HEK cells; type: biochemical
T2 construct: pΔPH-PKB-ΔC (residues 146 to 460, phosphorylated in vitro on Thr-309); His tag; made in house; host or cells: HEK cells (transient expression), purified on Ni-NTA
T2 sequence (P31751 146-460, stated change not applied): as above
Description: To test the notion that a hydrophobic groove is induced in PKB to engage the hydrophobic motif, and activate the kinase, a series of His tagged pΔPH-PKB-ΔC hydrophobic groove mutants was prepared and their responsiveness to PIFtide assessed. PKB mutants were transiently expressed in HEK cells, phosphorylated in vitro with PDK1, and purified using Ni-NTA agarose.
Wild type PKB prepared using this procedure was stimulated ˜5-fold by 130 μM PIFtide (FIG. 6B).
as §1

[3] = molecular target: T3, ΔPH-PKB phosphorylated on Thr 309 (Homo sapiens, UniProt P31751); assay: Protein kinase B assay, peptide stimulation of ΔPH-PKB phosphorylated on Thr 309; type: biochemical
T3 construct: ΔPH-PKBβ (residues 146-481) on Thr309 Using PDK1; 6xHis (pFastBacHTa, TEV-cleavable) (N, cleaved yes); made in house; host or cells: Sf9 insect cells / baculovirus
T3 sequence (P31751 146-481, stated change not applied): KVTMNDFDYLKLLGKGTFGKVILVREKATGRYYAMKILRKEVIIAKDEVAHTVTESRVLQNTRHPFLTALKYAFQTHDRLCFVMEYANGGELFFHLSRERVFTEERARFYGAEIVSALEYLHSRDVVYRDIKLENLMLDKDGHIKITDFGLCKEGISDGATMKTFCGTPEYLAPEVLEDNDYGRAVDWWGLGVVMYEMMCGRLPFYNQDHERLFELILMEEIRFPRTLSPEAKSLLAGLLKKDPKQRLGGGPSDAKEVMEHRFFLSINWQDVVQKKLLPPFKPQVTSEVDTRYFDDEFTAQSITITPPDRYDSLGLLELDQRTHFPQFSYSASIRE
Description: as §1, §2

[4] = molecular target: T4, ΔPH-PKB-ΔC (PKBβ residues 146 to 460, not phosphorylated on Thr-309) (Homo sapiens, UniProt P31751); assay: Protein kinase B assay, peptide stimulation of ΔPH-PKB-ΔC with unphosphorylated Thr 309; type: biochemical
T4 construct: ΔPH-PKB-ΔC(residues 146 to 460, not phosphorylated on Thr-309); 6xHis (pFastBacHTa, TEV-cleavable) (N, cleaved yes); made in house; host or cells: Sf9 insect cells / baculovirus
T4 sequence (P31751 146-460, stated change not applied): as the sequence (P31751 146-460, stated change not applied) above
Description: as §1, §2

[5] = molecular target: T5, ΔPH-PKB phosphorylated on both Thr 309 and Ser 474 (Homo sapiens, UniProt P31751); assay: Protein kinase B assay, peptide stimulation of ΔPH-PKB phosphorylated on both Thr 309 and Ser 474; type: biochemical
T5 construct: ΔPH-PKBβ (residues 146-481) on Thr309 Using PDK1; 6xHis (pFastBacHTa, TEV-cleavable) (N, cleaved yes); made in house; host or cells: Sf9 insect cells / baculovirus
T5 sequence (P31751 146-481, stated change not applied): as the sequence (P31751 146-481, stated change not applied) above
Description: as §1, §2

[6] = molecular target: ΔPH-PKB (human PKBβ residues 146-481) phosphorylated on Thr 309 (human) (UniProt P31751); assay: cell-based or functional assay
[7] = molecular target: His tagged pΔPH-PKB-ΔC, wild type, expressed in HEK cells (human) (UniProt P31751); assay: cell-based or functional assay
Sequence of His tagged pΔPH-PKB-ΔC, wild type, expressed in HEK cells (human) (P31751 146-460, stated change not applied): as the sequence (P31751 146-460, stated change not applied) above

[8] = molecular target: pΔPH-PKBβ-ΔC (human PKBβ residues 146-460, phosphorylated in vitro on Thr-309) (human) (UniProt P31751); assay: cell-based or functional assay
[9] = molecular target: His tagged pΔPH-PKB-ΔC V194A-V198A mutant (human) (UniProt P31751); assay: cell-based or functional assay
Sequence of His tagged pΔPH-PKB-ΔC V194A-V198A mutant (human) (P31751 146-460 V194A/V198A): as the sequence (P31751 146-460, stated change not applied) above, with V49A, V53A counted along it

[10] = molecular target: ΔPH-PKBβ-ΔC (human PKBβ residues 146-460, not phosphorylated on Thr-309) (human) (UniProt P31751); assay: isothermal titration calorimetry
[11] = molecular target: ΔPH-PKBβ-ΔC (human PKBβ residues 146-460, not phosphorylated on Thr-309) (human) (UniProt P31751); assay: isothermal titration calorimetry, PIFtide titrated into the kinase domain
[12] = molecular target: pΔPH-PKBβ-ΔC (human PKBβ residues 146-460, phosphorylated in vitro on Thr-309) (human) (UniProt P31751); assay: as above
[13] = molecular target: pΔPH-PKBβ-ΔC (human PKBβ residues 146-460, phosphorylated in vitro on Thr-309) (human) (UniProt P31751); assay: cell-based or functional assay; remark: listed apart in the source

CC[C@H](C)[C@H](NC(=O)[C@H](Cc1ccc(O)cc1)NC(=O)[C@H](CC(=O)O)NC(=O)[C@H](Cc1ccccc1)NC(=O)[C@H](CC(=O)O)NC(=O)[C@H](CCCNC(=N)N)NC(=O)[C@H](Cc1ccccc1)NC(=O)[C@H](CCSC)NC(=O)[C@H](CCC(=O)O)NC(=O)[C@H](CCC(N)=O)NC(=O)[C@H](CCC(=O)O)NC(=O)[C@H](CCC(=O)O)NC(=O)[C@H](CCC(=O)O)NC(=O)[C@H](CO)NC(=O)[C@H](CC(C)C)NC(=O)[C@@H](NC(=O)[C@H](CCCNC(=N)N)NC(=O)[C@@H]1CCCN1C(=O)[C@H](CCC(=O)O)NC(=O)[C@@H](N)CCCNC(=N)N)[C@@H](C)CC)C(=O)N[C@@H](C)C(=O)N[C@@H](CC(=O)O)C(=O)N[C@@H](Cc1c[nH]c2ccccc12)C(=O)O [PIFtide, reference compound] (H-REPRILSEEEQEMFRDFDYIADW-OH; N-terminus and C-terminus assumed)
maximal fold induction at 600 µM [1]: 15 | fold induction at 130 µM ([2]; read-out: stimulation of wild type PKB prepared from HEK cells): ~5 | activation of ΔPH-PKB phosphorylated on Thr 309 [3]: 5 fold

CC[C@H](C)[C@H](NC(=O)[C@H](CO)NC(=O)[C@H](C)NC(=O)[C@H](CO)NC(=O)[C@H](Cc1ccc(O)cc1)NC(=O)[C@H](CC(=O)O)NC(=O)[C@H](Cc1ccccc1)NC(=O)[C@H](CCC(N)=O)NC(=O)[C@@H]1CCCN1C(=O)[C@H](Cc1ccccc1)NC(=O)[C@H](Cc1c[nH]cn1)NC(=O)[C@@H](NC(=O)[C@H](CCCNC(=N)N)NC(=O)[C@H](CCC(N)=O)NC(=O)[C@H](CC(=O)O)NC(=O)[C@H](CC(C)C)NC(=O)[C@H](CCC(=O)O)NC(=O)[C@H](CC(C)C)NC(=O)[C@H](CC(C)C)NC(=O)CN)[C@@H](C)O)C(=O)N[C@@H](CCCNC(=N)N)C(=O)N[C@@H](CCC(=O)O)C(=O)O [PKB HM-D] (H-GLLELDQRTHFPQFDYSASIRE-OH; N-terminus and C-terminus assumed)
maximal fold induction at 600 µM [1]: 3 | fold lower affinity than PIFtide (from EC50 values) [1]: ~1000 fold

CC[C@H](C)[C@H](NC(=O)[C@H](CO)NC(=O)[C@H](C)NC(=O)[C@H](CO)NC(=O)[C@H](Cc1ccc(O)cc1)NC(=O)[C@H](COP(=O)(O)O)NC(=O)[C@H](Cc1ccccc1)NC(=O)[C@H](CCC(N)=O)NC(=O)[C@@H]1CCCN1C(=O)[C@H](Cc1ccccc1)NC(=O)[C@H](Cc1c[nH]cn1)NC(=O)[C@@H](NC(=O)[C@H](CCCNC(=N)N)NC(=O)[C@H](CCC(N)=O)NC(=O)[C@H](CC(=O)O)NC(=O)[C@H](CC(C)C)NC(=O)[C@H](CCC(=O)O)NC(=O)[C@H](CC(C)C)NC(=O)[C@H](CC(C)C)NC(=O)CN)[C@@H](C)O)C(=O)N[C@@H](CCCNC(=N)N)C(=O)N[C@@H](CCC(=O)O)C(=O)O [PKB HM-P, GLLELDQRTHFPQFpSYSASIRE] (H-GLLELDQRTHFPQF[pS]YSASIRE-OH; N-terminus and C-terminus assumed)
activation of ΔPH-PKB-ΔC with unphosphorylated Thr 309 (in words) [4]: unable to activate | further activation of ΔPH-PKB phosphorylated on both Thr 309 and Ser 474 (in words) [5]: did not further activate | maximal fold induction at 600 µM [1]: 4 | fold lower affinity than PIFtide (from EC50 values) ([1]; listed as phosphorylated HM-peptide): ~1000 fold | activation of wild type PKB prepared from HEK cells (in words) [2]: did not elicit measurable activation

GLLELDQRTHFPQFSYSASIRE [PKB HM-S]
stimulation of pΔPH-PKB-ΔC kinase activity (in words) ([1]; Crosstide substrate, dose response FIG. 5): did not stimulate

MFRDFDYIADW [PIFtide1, 11-residue peptide encompassing the six-residue hydrophobic motif of PIFtide]
activation of pΔPH-PKB-ΔC by modified PIFtide and HM peptides (in words) ([1]; PIFtide concentrations 210-250 μM, PKB HM-peptide up to 1.2 mM, FIG. 6A): essentially recapitulates the activation

PIFtide (peptide)
stimulation of kinase activity towards Crosstide [6]: 5 fold | stimulation of kinase activity by 130 µM PIFtide [7]: 5 fold | EC50 of kinase activation [8]: 3 µM | peptide concentration giving maximum activation [8]: 20 µM | specific activity when maximally activated by PIFtide [8]: 350 nmol/min/mg | stimulation of kinase activity towards Crosstide [8]: 15 fold | PIFtide activation relative to wild type (% of wild type) [9]: 25 | enthalpy change (ΔH) [10]: -16 kcal/mol | entropy term (TΔS) [10]: -9.2 kcal/mol | Kd [11]: 5.5 µM | Kd [12]: 6 µM

GLLELDQRTHFPQF[pS]YSASIRE [PKB HM-P]
EC50 of kinase activation (estimated from FIG. 5A) [13]: 2300 µM | fold lower affinity than PIFtide, from estimated EC50 [13]: 1000 fold | stimulation of kinase activity towards Crosstide [13]: 4 fold

GLLELDQRTHFPQFDYSASIRE [PKB HM-D]
EC50 of kinase activation (estimated from FIG. 5A) [13]: 3600 µM | fold lower affinity than PIFtide, from estimated EC50 [13]: 1000 fold | stimulation of kinase activity towards Crosstide [13]: 3 fold
